Non-standard residues stand in square brackets, D forms with d. No end group written: not given here. *: point of attachment. Phe(F5) = N[C@@H](Cc1c(F)c(F)c(F)c(F)c1F)C(=O)O; Desaminotyrosyl = O=C(CCc1ccc(O)cc1)*; NMeY = CN[C@@H](Cc1ccc(O)cc1)C(=O)O; Agmatine = N=C(N)NCCCCN*; Nle = CCCC[C@H](N)C(=O)O; Orn = NCCC[C@H](N)C(=O)O; Abu = CC[C@H](N)C(=O)O; Aoc = NCCCCCCCC(=O)O
T1: GHRH receptor (membrane receptors of human anterior pituitary cells) (human, UniProt Q02643 23-423)
T1 construct: whole, on cells; Native receptor in a membrane fraction of purchased normal human pituitaries, not intact cells; also called hGHRH receptor; human pituitary membrane homogenates
T1 sequence (looked up): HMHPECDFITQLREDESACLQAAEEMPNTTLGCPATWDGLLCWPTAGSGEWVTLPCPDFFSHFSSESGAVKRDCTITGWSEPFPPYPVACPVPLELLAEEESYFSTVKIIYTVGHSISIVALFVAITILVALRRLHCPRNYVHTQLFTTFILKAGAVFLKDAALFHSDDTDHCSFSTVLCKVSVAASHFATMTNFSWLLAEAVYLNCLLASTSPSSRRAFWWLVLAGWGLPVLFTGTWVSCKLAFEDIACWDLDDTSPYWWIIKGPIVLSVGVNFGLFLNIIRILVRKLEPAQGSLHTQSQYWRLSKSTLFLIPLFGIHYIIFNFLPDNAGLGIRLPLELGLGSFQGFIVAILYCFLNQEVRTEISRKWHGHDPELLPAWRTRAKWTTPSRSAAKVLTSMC

B1: P-27409 [N-Me-Tyr^1, D-Ala^2, Orn^12, Abu^15, Orn^21, Nle^27, Asp^28]hGHRH(1-29)NH-CH3 (peptide)
peptide: [NMeY][dA]DAIFTNSYR[Orn]VL[Abu]QLSAR[Orn]LLQDI[Nle]DR-NHMe
notes: also called MR-409; Peptide 27409
B2: P-27400 [Dat^1, D-Ala^2, Orn^12, Abu^15, Orn^21, Nle^27, Asp^28]hGHRH(1-29)NH-CH3 (peptide)
peptide: [Desaminotyrosyl][dA]DAIFTNSYR[Orn]VL[Abu]QLSAR[Orn]LLQDI[Nle]DR-NHMe
SMILES: CCCC[C@H](NC(=O)[C@@H](NC(=O)[C@H](CC(=O)O)NC(=O)[C@H](CCC(N)=O)NC(=O)[C@H](CC(C)C)NC(=O)[C@H](CC(C)C)NC(=O)[C@H](CCCN)NC(=O)[C@H](CCCNC(=N)N)NC(=O)[C@H](C)NC(=O)[C@H](CO)NC(=O)[C@H](CC(C)C)NC(=O)[C@H](CCC(N)=O)NC(=O)[C@H](CC)NC(=O)[C@H](CC(C)C)NC(=O)[C@@H](NC(=O)[C@H](CCCN)NC(=O)[C@H](CCCNC(=N)N)NC(=O)[C@H](Cc1ccc(O)cc1)NC(=O)[C@H](CO)NC(=O)[C@H](CC(N)=O)NC(=O)[C@@H](NC(=O)[C@H](Cc1ccccc1)NC(=O)[C@@H](NC(=O)[C@H](C)NC(=O)[C@H](CC(=O)O)NC(=O)[C@@H](C)NC(=O)CCc1ccc(O)cc1)[C@@H](C)CC)[C@@H](C)O)C(C)C)[C@@H](C)CC)C(=O)N[C@@H](CC(=O)O)C(=O)N[C@@H](CCCNC(=N)N)C(=O)NC
B3: P-20367 [N-Me-Tyr^1, D-Ala^2, Orn^12, Abu^15, Orn^21, Nle^27, Asp^28, Agm^29]hGHRH(1-29)NH2 (peptide)
peptide: [NMeY][dA]DAIFTNSYR[Orn]VL[Abu]QLSAR[Orn]LLQDI[Nle]D[Agmatine]
notes: also called Peptide 20367
B4: P-28421 [N-Me-Tyr^1, D-Ala^2, Orn^12, Abu^15, Orn^21, Nle^27, Asp^28]hGHRH(1-29)NH-CH2-CH3 (peptide)
peptide: [NMeY][dA]DAIFTNSYR[Orn]VL[Abu]QLSAR[Orn]LLQDI[Nle]DR-NHEt
notes: also called MR-421; Peptide 28421
B5: P-20359 [N-Me-Tyr^1, D-Ala^2, Fpa5^6, Orn^12, Abu^15, Orn^21, Nle^27, Asp^28, Agm^29]hGHRH(1-29)NH2 (peptide)
peptide: [NMeY][dA]DAI[Phe(F5)]TNSYR[Orn]VL[Abu]QLSAR[Orn]LLQDI[Nle]D[Agmatine]
notes: also called Peptide 20359
B6: P-21303 [N-Me-Tyr^1, D-Ala^2, Orn^12, Abu^15, Orn^21, Nle^27, Asp^28, Amc^30]hGHRH(1-30)NH2 (peptide)
peptide: [NMeY][dA]DAIFTNSYR[Orn]VL[Abu]QLSAR[Orn]LLQDI[Nle]DR[Aoc]-NH2
modifications: N-terminus assumed
SMILES: CCCC[C@H](NC(=O)[C@@H](NC(=O)[C@H](CC(=O)O)NC(=O)[C@H](CCC(N)=O)NC(=O)[C@H](CC(C)C)NC(=O)[C@H](CC(C)C)NC(=O)[C@H](CCCN)NC(=O)[C@H](CCCNC(=N)N)NC(=O)[C@H](C)NC(=O)[C@H](CO)NC(=O)[C@H](CC(C)C)NC(=O)[C@H](CCC(N)=O)NC(=O)[C@H](CC)NC(=O)[C@H](CC(C)C)NC(=O)[C@@H](NC(=O)[C@H](CCCN)NC(=O)[C@H](CCCNC(=N)N)NC(=O)[C@H](Cc1ccc(O)cc1)NC(=O)[C@H](CO)NC(=O)[C@H](CC(N)=O)NC(=O)[C@@H](NC(=O)[C@H](Cc1ccccc1)NC(=O)[C@@H](NC(=O)[C@H](C)NC(=O)[C@H](CC(=O)O)NC(=O)[C@@H](C)NC(=O)[C@H](Cc1ccc(O)cc1)NC)[C@@H](C)CC)[C@@H](C)O)C(C)C)[C@@H](C)CC)C(=O)N[C@@H](CC(=O)O)C(=O)N[C@@H](CCCNC(=N)N)C(=O)NCCCCCCCC(N)=O
notes: also called Peptide 21303

Target: T1, GHRH receptor (membrane receptors of …)
Experiment: competition with 125I-JV-1-42, human pituitary membranes
From the text: Normal human pituitaries were purchased from the National Hormone and Peptide Program (A. F. Parlow, Los Angeles, County Harbor-UCLA Medical Center, Torrance, Calif.).

Row | IC50 | Relative affinity (Binding potency) vs JI-38 | Binder
1 | 1.06 nM | 4.1 JI-38 = 1 | B1
2 | 3.35 nM | 1.3 JI-38 = 1 | B2
3 | 1.7 nM | 2.56 JI-38 = 1 | B3
4 | 1.47 nM | 2.96 JI-38 = 1 | B4
5 | 3.05 nM | 1.43 JI-38 = 1 | B5
6 | 1.87 nM | 2.32 JI-38 = 1 | B6

Target: T1, GHRH receptor (membrane receptors of …)
Experiment: competition with 125I-[His1,Nle27]hGHRH(1-32)NH2, human pituitary membranes
From the text: Normal human pituitary was purchased from the National Hormone and Peptide Program (UCLA Medical Center, Torrance, Calif.).

Row | IC50 | Relative affinity (Binding potency) compared to JI-38 | Relative affinity (Binding potency) compared to hGHRH(1-29) | Binder
7 | 1.01 nM | 2.71 JI-38 = 1 | 7.57 hGHRH(1-29)NH2 = 1 | B1
8 | 1.09 nM | 2.51 JI-38 = 1 | 7.01 hGHRH(1-29)NH2 = 1 | B3
9 | 3.05 nM | 0.9 JI-38 = 1 | 2.5 hGHRH(1-29)NH2 = 1 | B4

From patent US20140179604A1 (U S A REPRESENTED BY THE DEPARTMENT OF VETERANS AFFAIRS, published 2014)
